Results from IntAct's records for PubMed 29039417.

B1: BBSome complex member BBS2 (Homo sapiens), Q9BXC9 (parent)
chain: MLLPVFTLKLRHKISPRMVAIGRYDGTHPCLAAATQTGKVFIHNPHTRNQHVSASRVFQSPLESDVSLLSINQAVSCLTAGVLNPELGYDALLVGTQTNLLAYDVYNNSDLFYREVADGANAIVLGTLGDISSPLAIIGGNCALQGFNHEGSDLFWTVTGDNVNSLALCDFDGDGKKELLVGSEDFDIRVFKEDEIVAEMTETEIVTSLCPMYGSRFGYALSNGTVGVYDKTSRYWRIKSKNHAMSIHAFDLNSDGVNELITGWSNGKVDARSDRTGEVIFKDNFSSAIAGVVEGDYRMDGHIQLICCSVDGEIRGYLPGTAEMRGNLMDTSAEQDLIRELSQKKQNLLLELRNYEENAKAELASPLNEADGHRGIIPANTRLHTTLSVSLGNETQTAHTELRISTSNDTIIRAVLIFAEGIFTGESHVVHPSIHNLSSSICIPIVPPKDVPVDLHLKAFVGYRSSTQFHVFESTRQLPRFSMYALTSLDPASEPISYVNFTIAERAQRVVVWLGQNFLLPEDTHIQNAPFQVCFTSLRNGGHLHIKIKLSGEITINTDDIDLAGDIIQSMASFFAIEDLQVEADFPVYFEELRKVLVKVDEYHSVHQKLSADMADHSNLIRSLLVGAEDARLMRDMKTMKSRYMELYDLNRDLLNGYKIRCNNHTELLGNLKAVNQAIQRAGRLRVGKPKNQVITACRDAIRSNNINTLFKIMRVGTASS
partner: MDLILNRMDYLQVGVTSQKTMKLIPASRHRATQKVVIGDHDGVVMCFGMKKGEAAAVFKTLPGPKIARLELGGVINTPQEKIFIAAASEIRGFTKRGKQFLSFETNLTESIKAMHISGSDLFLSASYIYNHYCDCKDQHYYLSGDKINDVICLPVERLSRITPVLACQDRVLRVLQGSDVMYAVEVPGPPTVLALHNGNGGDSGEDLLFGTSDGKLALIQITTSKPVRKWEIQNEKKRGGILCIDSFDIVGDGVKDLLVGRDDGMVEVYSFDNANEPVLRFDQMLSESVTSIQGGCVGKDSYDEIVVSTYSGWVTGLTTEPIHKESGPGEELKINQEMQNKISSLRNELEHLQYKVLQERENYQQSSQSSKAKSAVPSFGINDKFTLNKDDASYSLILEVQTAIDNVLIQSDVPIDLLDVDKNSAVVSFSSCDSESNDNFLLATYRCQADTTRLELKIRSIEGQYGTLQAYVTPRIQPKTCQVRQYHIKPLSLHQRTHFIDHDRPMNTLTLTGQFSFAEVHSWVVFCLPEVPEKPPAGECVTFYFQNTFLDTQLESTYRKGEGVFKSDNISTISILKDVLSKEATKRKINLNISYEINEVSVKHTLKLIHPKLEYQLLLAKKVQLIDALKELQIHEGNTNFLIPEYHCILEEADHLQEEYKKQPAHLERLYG

Variants of: B1
Settings: with BBS7, Q8IWZ6-2

effect of a mutation on the interaction	Variant
with no effect	S493E
with no effect	S493K
disrupting interaction strength	F472L
disrupting interaction strength	F501S
with no effect	R476A
disrupting interaction strength	R506A
with no effect	R506K
with no effect	V510E
with no effect	R480A
with no effect	R480K
with no effect	T467K
with no effect	S497E
with no effect	S497A
with no effect	E494A
with no effect	I496E
with no effect	L489E
with no effect	G462K
with no effect	G462E
with no effect	A504K
disrupting interaction strength	A504S
with no effect	T502A

effect of a mutation on the interaction	Variant
with no effect	A507K
with no effect	F481A
disrupting interaction strength	F481E
with no effect	T475E
disrupting interaction strength	Q468L
with no effect	V471E
with no effect	V471K
with no effect	V471A
with no effect	Q477E
disrupting interaction strength	S488R
with no effect	S488K
with no effect	I503E
with no effect	I503A
with no effect	Y498K
with no effect	S474A
with no effect	S474K
with no effect	S482A
with no effect	S482K
disrupting interaction strength	T487P
disrupting interaction strength	T487R
with no effect	T487A

effect of a mutation on the interaction	Variant
disrupting interaction strength	L478K
with no effect	L478E
with no effect	N500A
disrupting interaction strength	A485S
with no effect	S465A
with no effect	A492E
with no effect	D490E
disrupting interaction strength	V499R
with no effect	F469K
with no effect	F469A
disrupting interaction strength	P479A
with no effect	V461K
with no effect	R509K
with no effect	R509A
with no effect	R509E
with no effect	V512K
disrupting interaction strength	R464T
with no effect	Q508A
disrupting interaction strength	S466E

Continued, variant first:

Variant	effect of a mutation on the interaction
S493A	with no effect
S493N	disrupting interaction strength
F472A	disrupting interaction strength
F472E	with no effect
F472K	with no effect
F501A	with no effect
F501E	disrupting interaction strength
F501K	disrupting interaction strength
R476K	with no effect
R476E	with no effect
R506E	with no effect
V510K	disrupting interaction strength
V510A	with no effect
P491K	with no effect
P491E	with no effect
P491A	with no effect
R480E	with no effect
T467A	with no effect
T467E	with no effect
L486A	with no effect
L486K	with no effect
L486E	with no effect

Variant	effect of a mutation on the interaction
S497K	with no effect
E494K	with no effect
I496K	with no effect
I496A	with no effect
Y463A	disrupting interaction strength
Y463E	with no effect
Y463K	with no effect
L489A	with no effect
L489K	with no effect
G462A	with no effect
A504E	with no effect
T502E	with no effect
T502K	with no effect
A507E	with no effect
V511K	with no effect
V511A	with no effect
V511E	with no effect
M483E	with no effect
M483K	disrupting interaction strength
M483A	with no effect
F481K	disrupting interaction strength
T475K	with no effect

Variant	effect of a mutation on the interaction
T475A	with no effect
Q468K	with no effect
Q468A	with no effect
Q468E	with no effect
Q477K	with no effect
Q477A	with no effect
S488A	with no effect
S488E	with no effect
I503K	disrupting interaction strength
Y498A	with no effect
Y498E	with no effect
Y484A	disrupting interaction strength
Y484Q	disrupting interaction strength
Y484E	with no effect
Y484K	with no effect
Y484S	disrupting interaction strength
S474E	with no effect
S482E	disrupting interaction strength
P495K	with no effect
P495A	with no effect
P495E	with no effect
W513E	disrupting interaction strength

Variant	effect of a mutation on the interaction
W513A	disrupting interaction strength
T487E	with no effect
T487K	with no effect
L478A	disrupting interaction strength
N500K	with no effect
N500E	with no effect
E473K	with no effect
E473A	with no effect
A485K	with no effect
A485E	with no effect
S465K	with no effect
S465E	with no effect
A492K	with no effect
F460K	with no effect
D490A	with no effect
D490K	with no effect
V499A	with no effect
V499K	disrupting interaction strength
V499E	disrupting interaction strength
E505A	with no effect
E505K	with no effect
F469E	with no effect

Variant	effect of a mutation on the interaction
F469M	disrupting interaction strength
F469S	disrupting interaction strength
P479E	disrupting interaction strength
P479K	with no effect
V461A	disrupting interaction strength
V461M	disrupting interaction strength
V461E	with no effect
H470K	with no effect
H470A	with no effect
H470E	with no effect
V512A	with no effect
V512E	with no effect
R464A	with no effect
R464K	with no effect
R464E	with no effect
Q508K	with no effect
Q508E	with no effect
S466K	with no effect
S466A	with no effect
